Data on one molecule can be found in publication PMC10950897 (2024).

This assay addresses His6-p97 WT (human, UniProt P55072 1-806). The experiment in a line: SPR. A general note: Surface plasmon resonance follows binding to a sensor surface in real time, without labels.

Sequence of His6-p97 WT (P55072 whole entry): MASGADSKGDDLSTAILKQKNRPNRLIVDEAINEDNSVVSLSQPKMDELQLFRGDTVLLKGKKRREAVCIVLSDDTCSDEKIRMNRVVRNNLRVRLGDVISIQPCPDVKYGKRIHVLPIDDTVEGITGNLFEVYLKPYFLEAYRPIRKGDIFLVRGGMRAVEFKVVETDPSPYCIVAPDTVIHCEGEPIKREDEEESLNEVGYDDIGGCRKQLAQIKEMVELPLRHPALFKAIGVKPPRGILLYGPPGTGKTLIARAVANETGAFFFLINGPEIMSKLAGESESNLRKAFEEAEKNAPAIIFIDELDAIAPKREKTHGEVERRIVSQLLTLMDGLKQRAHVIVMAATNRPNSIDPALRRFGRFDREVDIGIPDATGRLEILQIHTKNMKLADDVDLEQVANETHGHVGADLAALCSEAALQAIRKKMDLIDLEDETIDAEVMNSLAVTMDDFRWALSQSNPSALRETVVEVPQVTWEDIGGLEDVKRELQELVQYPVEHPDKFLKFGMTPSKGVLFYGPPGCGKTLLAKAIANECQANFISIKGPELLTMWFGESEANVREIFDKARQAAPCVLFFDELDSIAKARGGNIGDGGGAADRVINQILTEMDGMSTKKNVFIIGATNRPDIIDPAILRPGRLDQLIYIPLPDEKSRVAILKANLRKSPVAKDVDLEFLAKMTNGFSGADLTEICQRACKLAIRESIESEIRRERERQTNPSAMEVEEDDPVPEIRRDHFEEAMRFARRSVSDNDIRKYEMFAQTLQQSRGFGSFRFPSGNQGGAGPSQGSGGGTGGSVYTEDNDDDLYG

B1: Strep-HA-VCF1 WT (natural protein)
chain: not shown
For the molecule B1, the Kd (as a rule, the free concentration of one partner at which half of the binding sites on the other are occupied at equilibrium, for simple one-to-one binding) was determined as 10.9 nM.
